# B1: 89C8 (antibody, V domains shown)
# VH: QVQLVQSGAEVKKPGSSVKVSCKASGGTFSSYAISWVRQAPGQGLEWMGGIIPILGIANYAQKFQGRVTITADKSTSTAYMELSSLRSEDTAVYYCARGGLGFGELFRKTGYYFDYWGQGTLVTVSS
# VL: EIVMTQSPATLSVSPGERATLSCRASQSVSSNLAWYQQKPGQAPRLLIYAASTRATAIPARFSGSGSGTEFTLTISSLQSEDFAVYFCQQYNKLPLTFGGGTKVDIKR
# Target: S1-His (SARS-CoV-2, UniProt P0DTC2 16-685)
binder,measurement,value
B1,Kd,7.6 nM
same,koff,0.000385 s⁻¹
same,kon,50400 M⁻¹ s⁻¹
